Test results as given in paper PMC3928677 (Science (New York, N.Y.), 2013).
Several values for one entry are separate records, joined by “and”; a condition that tells them apart may be missing. Identical values can stand only once. Like-named read-outs stand apart in the source and are kept apart here.

T1: RseB (Escherichia coli, UniProt P0AFX9)
T1 sequence (P0AFX9 24-318): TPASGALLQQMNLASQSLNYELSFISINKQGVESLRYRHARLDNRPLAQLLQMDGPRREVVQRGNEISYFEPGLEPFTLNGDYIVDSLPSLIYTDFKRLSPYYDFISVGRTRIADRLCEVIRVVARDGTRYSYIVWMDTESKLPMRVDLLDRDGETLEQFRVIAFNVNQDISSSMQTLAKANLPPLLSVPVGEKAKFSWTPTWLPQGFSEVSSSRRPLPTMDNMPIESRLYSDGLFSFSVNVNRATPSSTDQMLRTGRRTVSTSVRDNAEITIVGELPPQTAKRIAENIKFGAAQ

B1: MucB (natural protein, Pseudomonas aeruginosa, UniProt P38108 22-316, looked up)
chain: ADASDWLNRLAEADRQNSFQGTFVYERNGSFSTHEIWHRVESDGAVRERLLQLDGARQEVVRVDGRTQCISGGLADQLADAQLWPVRKFDPSQLASWYDLRLVGESRVAGRPAVVLAVTPRDQHRYGFELHLDRDTGLPLKSLLLNEKGQLLERFQFTQLNTGAAPAEDQLQAGAECQVVGPAKADGEKTVAWRSEWLPPGFTLTRSFMRRSPVTPDPVACLTYGDGLARFSVFIEPLHGAMVGDARSQLGPTVVVSKRLQTDDGGQMVTVVGEVPLGTAERVALSIRPEAAAQK
modifications: 35S label (in the elution assay from MucA^P-agarose only)
B2: RseB (natural protein, E. coli, UniProt P0AFX9 24-318, looked up)
chain: TPASGALLQQMNLASQSLNYELSFISINKQGVESLRYRHARLDNRPLAQLLQMDGPRREVVQRGNEISYFEPGLEPFTLNGDYIVDSLPSLIYTDFKRLSPYYDFISVGRTRIADRLCEVIRVVARDGTRYSYIVWMDTESKLPMRVDLLDRDGETLEQFRVIAFNVNQDISSSMQTLAKANLPPLLSVPVGEKAKFSWTPTWLPQGFSEVSSSRRPLPTMDNMPIESRLYSDGLFSFSVNVNRATPSSTDQMLRTGRRTVSTSVRDNAEITIVGELPPQTAKRIAENIKFGAAQ
modifications: 35S label (in the elution assay from RseA^P-agarose only)

What was measured:
RseB = target: T1, RseB; experiment: fluorescence anisotropy, displacement of fluorescent RseA^P; format: binding
SEC [1] = target: the molecule itself; experiment: SEC
SEC [2] = target: the molecule itself; experiment: SEC; remark: listed apart in the source

Molecule | EC50 (RseB) [µM] | stoichiometry N (SEC [1]) | stoichiometry N (SEC [2])
CCCCCCCCCCC[C@@H](O)CC(=O)N[C@H]1[C@H](OC[C@H]2O[C@H](OP(=O)(O)O)[C@H](NC(=O)C[C@H](O)CCCCCCCCCCC)[C@@H](O)[C@@H]2O)O[C@H](CO)[C@@H](OP(=O)(O)O)[C@@H]1O [L-IIA] | ~65 |  | 
B1 |  | 4 and 2 | 
B2 |  | 4 | 2
